Assay results reported in paper PMC3946051 (Molecular microbiology, 2014).

B1: CrtJ (natural protein, R. capsulatus, UniProt P26167 1-469, looked up)
chain: MTSDGSFLMRREALQRVSPDLLADIVTSACDIALVVSPGRVVESVMVNPQFGSAERFAAWQGARLSQLFSPESAQKLENRLADGPEPGRSLQLELTHAADAFTLPVRYTITRSGEDGTLLLIGRDMQPLAEVQQQLVKAQLALERDYEAQREIETRYRVLLEAHPAPLLIVSMSTGRIADLNLAAAAMIGATRAELIDAPVGQELDGRRRGEFLENLAKIAGSDPLGAVELTIRRSRRKVTVTATLFRAAGDRLLLCRLGEAEARRTRVDDTVELSERLFLKGIDAMVFLDADGTIRAANDAFLYLTDAGSAALVQGRSFADFLSRGAVDLNVLLDNVKRIGHLRHYVTRLNTDFSGQVTVELSATLFHDRATPTIALVIRDSNLADATRIMPGMASNEGLRNVMQMVGYATLRDIVSETTEIIEKMCIETALELTGNNRVAAAELLSLSRQSLYVKLRKFGLLSKDAE

Key:
CrtJ (R. capsulatus) [1] = molecular target: CrtJ (R. capsulatus) (UniProt P26167); assay: SEC
CrtJ (R. capsulatus) [2] = molecular target: CrtJ (R. capsulatus) (UniProt P26167); assay: MST
SEC = molecular target: the molecule itself; assay: SEC

| Molecule | stoichiometry N (CrtJ (R. capsulatus) [1]) | EC50 (CrtJ (R. capsulatus) [2]) [µM] | stoichiometry N (SEC) |
| --- | --- | --- | --- |
| AerR:B12 (natural protein) | 1 | 3.3 | – |
| B1 | – | – | 2 |
